Assay results as given in patent US20020177689A1.

Molecular target: Rhodamine green-Gly-Gly-dPhe-Leu-Arg-Arg-Val-Cys(QSY 7)-betaAla-NH2

Km (steady state kinetics, FRET cleavage assay): 8 µM
Substance: recombinant human neutral endopeptidase (NEP) (from UniProt P08473) (enzyme)
